What was measured:
MLDSR (GST-MLDSR) [1] = molecular target: T1, MLDSR (GST-MLDSR) (Rhodococcus jostii RHA1, UniProt A0A1H4Y2R3 2-168); assay: SPR; 1:1 model though DNA holds two sites; EMSA: 20 mM Tris-HCl pH 7.5, 150 mM NaCl, 5 mM MgCl2, 1 mM EDTA, 1 mM DTT, 4% glycerol, 24 C or room temperature, 30-40 min; SPR: 20 mM Tris-HCl pH 7.5, 150 mM; details: protein: recombinant; tags: N-terminal GST; label: 5'-biotin on strand 1; blunt
T1 sequence: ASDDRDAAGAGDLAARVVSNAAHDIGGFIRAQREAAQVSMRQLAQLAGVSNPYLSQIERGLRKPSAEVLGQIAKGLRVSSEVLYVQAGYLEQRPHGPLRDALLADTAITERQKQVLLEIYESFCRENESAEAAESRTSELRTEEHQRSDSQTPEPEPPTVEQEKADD

MLDSR (GST-MLDSR) [2] = molecular target: T1, MLDSR (GST-MLDSR); assay: SPR; EMSA: 20 mM Tris-HCl pH 7.5, 150 mM NaCl, 5 mM MgCl2, 1 mM EDTA, 1 mM DTT, 4% glycerol, 24 C or room temperature, 30-40 min; SPR: 20 mM Tris-HCl pH 7.5, 150 mM; details: protein: recombinant; tags: N-terminal GST; label: 5'-biotin on strand 1; blunt
MLDSR (GST-MLDSR) [3] = molecular target: T1, MLDSR (GST-MLDSR); assay: EMSA; rough estimate by authors from Fig. 5b; EMSA: 20 mM Tris-HCl pH 7.5, 150 mM NaCl, 5 mM MgCl2, 1 mM EDTA, 1 mM DTT, 4% glycerol, 24 C or room temperature, 30-40 min; SPR: 20 mM Tris-HCl pH 7.5, 150 mM; details: protein: recombinant; tags: N-terminal GST; blunt
MLDSR (GST-MLDSR) [4] = molecular target: T1, MLDSR (GST-MLDSR); assay: EMSA; EMSA: 20 mM Tris-HCl pH 7.5, 150 mM NaCl, 5 mM MgCl2, 1 mM EDTA, 1 mM DTT, 4% glycerol, 24 C or room temperature, 30-40 min; SPR: 20 mM Tris-HCl pH 7.5, 150 mM; details: protein: recombinant; tags: N-terminal GST; blunt

B1: biotin-43 bp (motif 1+2) (dsDNA)
DNA 1: TCCGCTAGCTGGGTGCTAACAGAGTGCTTGCAATTGCTAGCAC
DNA 2: GTGCTAGCAATTGCAAGCACTCTGTTAGCACCCAGCTAGCGGA
B1 was tested, and the Kd (MLDSR (GST-MLDSR) [1]) was 62 nM.

B2: biotin-motif 1 (20 bp) (dsDNA)
DNA 1: GTGCTTGCAATTGCTAGCAC
DNA 2: GTGCTAGCAATTGCAAGCAC
B2 was tested, and the Kd (MLDSR (GST-MLDSR) [2]) was 175 nM.

B3: biotin-motif 2 (23 bp) (dsDNA)
DNA 1: TCCGCTAGCTGGGTGCTAACAGA
DNA 2: TCTGTTAGCACCCAGCTAGCGGA
In the case of B3, the Kd (MLDSR (GST-MLDSR) [2]) is reported as 5140 nM.

B4: 43 bp (motif 1+2) (dsDNA)
DNA 1: B1 DNA 1
DNA 2: B1 DNA 2
B4 was tested, and the Kd (MLDSR (GST-MLDSR) [3]) was ~442 nM.

B5: 103 bp (dsDNA)
DNA 1: CAATCGCCTCGACGGAGGGTCCGCTAGCTGGGTGCTAACAGAGTGCTTGCAATTGCTAGCACCCTGCTTTAGCCTTGGTTCTGCCCAGCAACACGGAGGACTG
DNA 2: CAGTCCTCCGTGTTGCTGGGCAGAACCAAGGCTAAAGCAGGGTGCTAGCAATTGCAAGCACTCTGTTAGCACCCAGCTAGCGGACCCTCCGTCGAGGCGATTG
B5: binds (MLDSR (GST-MLDSR) [4]).

Reference: article PMC5504291, “Bacterial lipid droplets bind to DNA via an intermediary protein that enhances survival under stress”
